Values of other authors in publication PMC3043165.

Experiments:
[1] = biological target: integrin αIIbβ3 (Homo sapiens) (UniProt P08514)
[2] = biological target: integrin αvβ5 (Homo sapiens) (UniProt P06756)
Chain of integrin αvβ5 (Homo sapiens) (P06756 31-992, chain 1 of 2): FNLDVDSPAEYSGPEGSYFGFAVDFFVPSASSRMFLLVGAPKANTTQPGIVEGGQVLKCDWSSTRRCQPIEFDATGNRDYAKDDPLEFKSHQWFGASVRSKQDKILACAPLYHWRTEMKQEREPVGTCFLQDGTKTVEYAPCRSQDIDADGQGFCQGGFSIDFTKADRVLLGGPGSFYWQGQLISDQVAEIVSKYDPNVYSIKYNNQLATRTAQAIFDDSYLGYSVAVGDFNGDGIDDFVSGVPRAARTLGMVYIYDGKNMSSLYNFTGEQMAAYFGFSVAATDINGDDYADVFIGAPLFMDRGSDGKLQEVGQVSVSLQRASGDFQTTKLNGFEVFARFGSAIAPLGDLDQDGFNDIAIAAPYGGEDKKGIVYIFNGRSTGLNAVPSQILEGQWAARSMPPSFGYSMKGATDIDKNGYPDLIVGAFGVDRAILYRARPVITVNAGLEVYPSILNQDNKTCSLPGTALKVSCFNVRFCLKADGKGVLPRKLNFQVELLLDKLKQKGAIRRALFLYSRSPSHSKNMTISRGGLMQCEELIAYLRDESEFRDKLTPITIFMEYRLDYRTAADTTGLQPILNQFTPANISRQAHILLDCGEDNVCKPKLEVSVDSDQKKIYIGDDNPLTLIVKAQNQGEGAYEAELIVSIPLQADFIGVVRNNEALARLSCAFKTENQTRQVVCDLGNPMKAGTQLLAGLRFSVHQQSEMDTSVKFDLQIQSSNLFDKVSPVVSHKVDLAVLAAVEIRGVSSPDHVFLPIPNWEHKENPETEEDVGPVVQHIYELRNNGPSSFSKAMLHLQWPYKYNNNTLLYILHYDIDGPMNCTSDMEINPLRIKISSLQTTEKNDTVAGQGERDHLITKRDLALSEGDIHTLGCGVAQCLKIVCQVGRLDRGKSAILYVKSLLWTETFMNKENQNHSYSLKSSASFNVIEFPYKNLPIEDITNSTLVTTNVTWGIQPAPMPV
Chain of integrin αvβ5 (Homo sapiens) (P18084 24-719, chain 2 of 2, further chain): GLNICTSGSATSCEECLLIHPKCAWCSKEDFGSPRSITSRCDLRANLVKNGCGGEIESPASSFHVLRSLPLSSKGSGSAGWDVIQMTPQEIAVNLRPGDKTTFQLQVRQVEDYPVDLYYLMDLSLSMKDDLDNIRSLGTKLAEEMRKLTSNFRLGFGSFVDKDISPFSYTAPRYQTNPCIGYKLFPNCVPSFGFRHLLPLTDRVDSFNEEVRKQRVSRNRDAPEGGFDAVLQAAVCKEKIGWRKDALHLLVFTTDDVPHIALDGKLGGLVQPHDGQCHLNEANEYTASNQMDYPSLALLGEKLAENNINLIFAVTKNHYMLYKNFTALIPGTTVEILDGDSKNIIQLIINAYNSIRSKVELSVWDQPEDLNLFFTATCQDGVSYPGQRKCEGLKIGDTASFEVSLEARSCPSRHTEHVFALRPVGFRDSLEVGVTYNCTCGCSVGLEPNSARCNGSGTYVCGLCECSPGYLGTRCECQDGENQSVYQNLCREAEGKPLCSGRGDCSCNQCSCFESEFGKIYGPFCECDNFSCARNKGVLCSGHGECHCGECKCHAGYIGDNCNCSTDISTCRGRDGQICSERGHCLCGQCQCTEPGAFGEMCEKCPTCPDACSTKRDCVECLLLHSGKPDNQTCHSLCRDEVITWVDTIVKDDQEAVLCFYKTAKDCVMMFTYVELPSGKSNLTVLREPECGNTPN

IC50 [1] [nM]	IC50 [2] [nM]	Substance
0.11		c(RGDyK)
	> 5000	GRGDS peptide
